Reference: doi:10.1101/2024.12.20.629683 (bioRxiv, 2024)

Target: Ryanodine receptor 1 (RyR1) (rabbit (endogenous in skeletal muscle), UniProt P11716)
Experiment: cryo-EM structure

Sequence of Ryanodine receptor 1 (RyR1) (P11716 whole entry): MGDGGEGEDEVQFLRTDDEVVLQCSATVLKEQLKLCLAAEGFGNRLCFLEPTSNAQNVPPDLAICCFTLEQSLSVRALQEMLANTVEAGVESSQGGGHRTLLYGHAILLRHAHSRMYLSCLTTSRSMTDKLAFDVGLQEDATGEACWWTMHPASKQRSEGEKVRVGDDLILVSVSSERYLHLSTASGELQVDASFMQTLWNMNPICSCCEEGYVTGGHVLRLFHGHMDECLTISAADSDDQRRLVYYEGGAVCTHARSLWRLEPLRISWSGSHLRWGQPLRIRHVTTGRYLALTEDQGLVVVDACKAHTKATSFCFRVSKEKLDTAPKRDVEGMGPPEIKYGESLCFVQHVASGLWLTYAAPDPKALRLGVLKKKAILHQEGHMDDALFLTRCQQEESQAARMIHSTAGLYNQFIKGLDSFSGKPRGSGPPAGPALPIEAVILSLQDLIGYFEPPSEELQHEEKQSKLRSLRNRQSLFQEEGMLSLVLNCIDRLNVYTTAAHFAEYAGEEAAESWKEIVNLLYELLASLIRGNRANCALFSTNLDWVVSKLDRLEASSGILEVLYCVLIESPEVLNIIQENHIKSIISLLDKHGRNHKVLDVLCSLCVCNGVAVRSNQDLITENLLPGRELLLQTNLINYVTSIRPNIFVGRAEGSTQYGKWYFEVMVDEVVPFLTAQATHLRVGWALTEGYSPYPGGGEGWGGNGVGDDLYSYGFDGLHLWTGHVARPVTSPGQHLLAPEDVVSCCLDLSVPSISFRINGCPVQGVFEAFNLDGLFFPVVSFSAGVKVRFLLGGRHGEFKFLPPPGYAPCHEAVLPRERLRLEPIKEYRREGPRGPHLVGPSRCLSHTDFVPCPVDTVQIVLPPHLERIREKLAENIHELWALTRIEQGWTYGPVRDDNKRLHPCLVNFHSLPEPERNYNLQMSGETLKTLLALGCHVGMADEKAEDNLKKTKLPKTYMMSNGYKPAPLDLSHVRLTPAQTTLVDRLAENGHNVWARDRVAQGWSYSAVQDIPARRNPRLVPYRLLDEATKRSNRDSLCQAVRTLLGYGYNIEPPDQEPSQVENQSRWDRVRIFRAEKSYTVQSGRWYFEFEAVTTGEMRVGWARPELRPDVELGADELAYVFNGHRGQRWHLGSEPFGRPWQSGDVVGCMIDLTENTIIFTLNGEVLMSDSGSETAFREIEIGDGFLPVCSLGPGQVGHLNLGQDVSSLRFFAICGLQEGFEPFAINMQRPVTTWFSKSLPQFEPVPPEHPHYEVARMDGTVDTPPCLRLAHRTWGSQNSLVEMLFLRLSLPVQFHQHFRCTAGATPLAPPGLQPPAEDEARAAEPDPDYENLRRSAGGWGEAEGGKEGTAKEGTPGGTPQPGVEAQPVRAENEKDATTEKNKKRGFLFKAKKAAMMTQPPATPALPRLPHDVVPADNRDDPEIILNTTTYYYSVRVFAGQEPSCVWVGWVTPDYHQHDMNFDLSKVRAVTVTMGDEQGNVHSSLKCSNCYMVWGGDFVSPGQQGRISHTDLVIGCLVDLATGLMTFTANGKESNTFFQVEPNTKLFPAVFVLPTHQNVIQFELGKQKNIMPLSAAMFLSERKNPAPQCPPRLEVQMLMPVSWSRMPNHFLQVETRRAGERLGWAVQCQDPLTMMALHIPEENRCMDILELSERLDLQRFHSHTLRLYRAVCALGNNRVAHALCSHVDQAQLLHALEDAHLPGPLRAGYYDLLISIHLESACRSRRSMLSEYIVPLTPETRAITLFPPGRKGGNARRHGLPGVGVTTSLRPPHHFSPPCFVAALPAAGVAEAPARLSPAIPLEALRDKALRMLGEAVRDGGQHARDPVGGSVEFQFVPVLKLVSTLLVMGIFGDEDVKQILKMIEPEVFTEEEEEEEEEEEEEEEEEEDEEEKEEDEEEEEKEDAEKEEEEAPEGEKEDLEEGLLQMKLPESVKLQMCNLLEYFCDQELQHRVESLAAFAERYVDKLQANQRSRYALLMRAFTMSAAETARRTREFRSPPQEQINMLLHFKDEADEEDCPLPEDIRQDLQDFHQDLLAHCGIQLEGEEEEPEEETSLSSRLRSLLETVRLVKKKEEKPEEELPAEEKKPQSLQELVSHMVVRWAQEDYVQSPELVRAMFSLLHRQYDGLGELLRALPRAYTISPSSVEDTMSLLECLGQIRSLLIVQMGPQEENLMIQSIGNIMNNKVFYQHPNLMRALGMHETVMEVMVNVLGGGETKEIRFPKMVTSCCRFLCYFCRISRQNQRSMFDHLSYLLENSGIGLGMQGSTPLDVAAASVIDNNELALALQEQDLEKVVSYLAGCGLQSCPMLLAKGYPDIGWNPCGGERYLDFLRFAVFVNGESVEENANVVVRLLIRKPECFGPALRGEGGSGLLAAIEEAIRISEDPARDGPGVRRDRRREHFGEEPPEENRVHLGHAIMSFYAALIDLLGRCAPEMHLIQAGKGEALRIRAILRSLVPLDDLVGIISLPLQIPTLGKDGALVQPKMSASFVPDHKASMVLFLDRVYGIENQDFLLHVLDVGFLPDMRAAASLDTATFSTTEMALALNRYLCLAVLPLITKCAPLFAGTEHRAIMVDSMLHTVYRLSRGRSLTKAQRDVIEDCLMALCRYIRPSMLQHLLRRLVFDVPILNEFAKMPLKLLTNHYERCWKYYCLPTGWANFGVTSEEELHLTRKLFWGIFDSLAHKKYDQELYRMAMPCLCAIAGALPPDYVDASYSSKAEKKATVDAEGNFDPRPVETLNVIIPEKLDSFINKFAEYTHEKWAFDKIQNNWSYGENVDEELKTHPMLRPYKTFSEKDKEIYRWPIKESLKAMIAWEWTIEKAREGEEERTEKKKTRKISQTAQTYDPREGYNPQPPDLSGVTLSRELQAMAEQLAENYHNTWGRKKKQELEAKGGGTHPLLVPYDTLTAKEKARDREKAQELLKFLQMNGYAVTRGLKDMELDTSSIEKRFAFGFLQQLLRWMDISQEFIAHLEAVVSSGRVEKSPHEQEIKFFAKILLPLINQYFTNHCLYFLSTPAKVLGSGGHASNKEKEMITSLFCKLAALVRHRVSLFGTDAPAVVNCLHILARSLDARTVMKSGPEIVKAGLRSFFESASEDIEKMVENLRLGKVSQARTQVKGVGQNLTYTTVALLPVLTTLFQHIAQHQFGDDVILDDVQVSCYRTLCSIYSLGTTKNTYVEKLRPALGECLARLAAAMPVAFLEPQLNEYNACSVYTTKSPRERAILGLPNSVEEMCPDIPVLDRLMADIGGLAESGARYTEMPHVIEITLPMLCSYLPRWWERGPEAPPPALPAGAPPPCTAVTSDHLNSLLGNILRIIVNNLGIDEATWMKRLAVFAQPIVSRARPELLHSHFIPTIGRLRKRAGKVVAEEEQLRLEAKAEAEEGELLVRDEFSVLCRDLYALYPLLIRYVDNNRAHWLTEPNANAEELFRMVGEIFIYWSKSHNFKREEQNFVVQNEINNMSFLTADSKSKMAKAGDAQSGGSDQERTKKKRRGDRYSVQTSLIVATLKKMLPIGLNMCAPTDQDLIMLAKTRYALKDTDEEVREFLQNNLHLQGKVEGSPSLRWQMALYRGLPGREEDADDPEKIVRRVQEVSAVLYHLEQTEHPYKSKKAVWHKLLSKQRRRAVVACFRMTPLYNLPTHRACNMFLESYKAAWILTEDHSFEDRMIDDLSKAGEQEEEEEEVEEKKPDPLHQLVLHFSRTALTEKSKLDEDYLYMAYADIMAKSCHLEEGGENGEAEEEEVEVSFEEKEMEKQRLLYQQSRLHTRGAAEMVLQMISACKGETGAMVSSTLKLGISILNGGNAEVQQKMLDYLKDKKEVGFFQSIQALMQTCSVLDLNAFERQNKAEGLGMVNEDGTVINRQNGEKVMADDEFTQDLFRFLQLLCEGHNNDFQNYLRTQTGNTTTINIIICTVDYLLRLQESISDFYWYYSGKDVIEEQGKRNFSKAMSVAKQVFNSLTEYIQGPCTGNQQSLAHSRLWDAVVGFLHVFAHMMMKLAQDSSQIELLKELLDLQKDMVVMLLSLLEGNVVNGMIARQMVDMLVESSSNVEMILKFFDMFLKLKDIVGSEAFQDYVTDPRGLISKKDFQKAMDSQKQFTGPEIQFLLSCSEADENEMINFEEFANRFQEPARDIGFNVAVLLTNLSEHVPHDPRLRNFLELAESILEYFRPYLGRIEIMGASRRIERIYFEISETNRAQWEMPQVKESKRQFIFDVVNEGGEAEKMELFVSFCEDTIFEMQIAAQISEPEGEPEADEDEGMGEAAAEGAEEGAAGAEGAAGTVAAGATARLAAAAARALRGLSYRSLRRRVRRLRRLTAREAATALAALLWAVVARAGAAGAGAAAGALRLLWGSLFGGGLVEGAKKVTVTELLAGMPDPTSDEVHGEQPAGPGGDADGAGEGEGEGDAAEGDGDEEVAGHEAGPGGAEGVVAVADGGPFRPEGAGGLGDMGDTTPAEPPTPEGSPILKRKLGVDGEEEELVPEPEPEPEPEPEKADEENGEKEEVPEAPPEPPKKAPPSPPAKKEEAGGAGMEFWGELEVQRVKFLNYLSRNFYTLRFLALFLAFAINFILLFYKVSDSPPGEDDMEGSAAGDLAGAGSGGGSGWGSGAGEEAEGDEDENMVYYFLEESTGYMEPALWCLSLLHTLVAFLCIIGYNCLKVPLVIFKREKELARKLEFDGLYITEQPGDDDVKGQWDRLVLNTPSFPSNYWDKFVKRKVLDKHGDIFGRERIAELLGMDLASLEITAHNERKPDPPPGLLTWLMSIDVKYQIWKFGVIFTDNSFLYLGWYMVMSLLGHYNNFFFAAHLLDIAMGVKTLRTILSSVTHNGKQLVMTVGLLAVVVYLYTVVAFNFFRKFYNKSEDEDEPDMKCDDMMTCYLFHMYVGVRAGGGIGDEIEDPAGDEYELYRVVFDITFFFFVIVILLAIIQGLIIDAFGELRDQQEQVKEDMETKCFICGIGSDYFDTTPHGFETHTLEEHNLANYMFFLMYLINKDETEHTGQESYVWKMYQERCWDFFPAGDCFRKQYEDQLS

B1: RyR-specific nanobody Nb9657 (VHH)
VHH: QVQLQESGGGLMQAGGSLRLSCTASGSIFSINSMGWYRQAPGKQRELVATITSGNSINYADSVKGRFTISRDNAKNTVYLQMNSLKPEDTAVYYCNADRVPNGYNPWGTPNDEYDYWGQGTQVTVSS
Q: Does B1 bind?
A: binds
